# Data published in patent US10280200B2, “Non-natural consensus albumin binding domains” (Janssen Biotech, Inc., priority 2012, dated 2019).
# Where a chain is given by its changes, count along the chain named. Names may count otherwise.
# B1: Tencon25-ABDCon: fusion of ABDCon to the c-terminus of Tencon25 FN3 scaffold by a (G4S)2 linker, SEQ ID NO: 39 (protein)
# chain: MLPAPKNLVVSEVTEDSARLSWTAPDAAFDSFLIQYQESEKVGEAIVLTVPGSERSYDLTGLKPGTEYTVSIYGVKGGHRSNPLSAIFTTGGGGSGGGGSLKEAKEKAIEELKKAGITSDYYFDLINKAKTVEGVNALKDEILKA
# modifications: Fusion protein Tencon25-ABDcon
# B2: Tencon-ABDCon: FN3 domain-ABDCon fusion protein, SEQ ID NO: 41 (protein)
# chain: B1 chain with A18L, V47N, I87E
# modifications: Tencon-ABDCon fusion protein
# Assays:
# [1] = Solubility after expression and purification from E. coli; assay type: physicochemical; conditions: expressed and purified from E. coli
# [2] = Thermal stability by differential scanning calorimetry (DSC) in PBS; assay type: physicochemical
# Procedure: A second identical scan was completed on the sample in order to assess the reversibility of thermal folding/unfolding. Data was fit to a 2-state unfolding model in order to calculate the melting temperature.
# The melting temperature of ABDCon12 was determined by differential scanning calorimetry using the procedures outlined in Example 2 above in order to investigate the mechanism of stabilization for this molecule.
# [3] = Stability on incubation in PBS at 37° C. for 28 days, SDS-PAGE and Mass Spectrometry; assay type: physicochemical; conditions: PBS pH 7.4, 37° C.
# Procedure: The FN3 domain-ABDCon fusion proteins were generated using standard cloning techniques. The amino acid sequence of one of the fusion proteins, Tencon-ABDCon is shown in SEQ ID NO: 41. Other FN3 domain-ABDCon fusion proteins made were Tencon25-ABDCon, 83-ABDCon and 71-ABDCon. These proteins were produced with c-terminal poly histidine tags and purified by a combination of nickel affinity and size exclusion chromatography using standard methods. Each purified molecule was incubated in PBS pH 7.4 at 37° C. for 28 days before analysis by SDS-PAGE and Mass Spectrometry.
# However one peptide sequence, TIDEWL (SEQ ID NO: 43), is present N-terminal to 5 of these protein domains. […] This protein was expressed with an N-terminal poly histidine tag and purified to homogeneity using standard methods for nickel affinity chromatography and size exclusion chromatography. Purified ABDCon12 was incubated at 37° C. in PBS for 28 days and stability assessed by SDS-PAGE and mass spectrometry.
# human serum albumin = human serum albumin (Homo sapiens, UniProt P02768); test: Kinetics of binding to immobilized human serum albumin, ProteOn XPR-36 surface plasmon resonance; conditions: read-out: KD (affinity) to human albumin, conditions specified herein
# Procedure: Human (SEQ ID NO: 36), Rhesus (SEQ ID NO: 37), and murine (SEQ ID NO: 38) serum albumins were purchased from Sigma (Catalogue # A4327 for human, #A3559 for murine, and #A4297 for rhesus) and resuspended in PBS at different concentrations. Each serum albumin was directly immobilized on a ligand channel in the vertical orientation of a GLC chip via standard amine coupling at 2.1 μg/mL at pH 5.0 to obtain surfaces with ligand densities of 500-1000 resonance units. […] The dissociation phases for all concentrations were monitored for two hours at a flow rate of 100 μL/min using PBST (PBS, 0.005% Tween20) as running buffer. A sixth sample (buffer only) was injected to monitor the baseline stability. The surfaces were regenerated using 1 short pulse (18 μL) of 0.8% phosphoric acid.
# The raw response data were first processed by subtracting the buffer only responses and the non-specific binding between the analytes and the chip. Processed data of all five concentrations were globally fit to a 1:1 simple langmuir binding model for each ligand surface.
# [4] = Serum half-life / pharmacokinetics of fusion proteins in mice (MSD sandwich ELISA of serum); assay type: in vivo, BALB/c female mice
# Procedure: Tencon25 is a protein scaffold based on a consensus sequence of a fibronectin type III (FN3) repeat protein having a sequence shown in residues 1-90 of SEQ ID NO: 39, and described in US2011/0274623A1. […] The resulting fusion protein has a polypeptide sequence shown in SEQ ID NO: 39. A poly-histidine tag was incorporated at the C-terminus for purification purposes. […] BALB/c female mice were split into 3 groups (N=3 group 1 non-treated control, and N=33 groups 2-3). Mice were treated with a single intravenous dose of the Tencon25-ABDCon fusion protein at 2 mg/kg. The dosing was based upon the weight of the animals on the day of administration. The mice were euthanized at the following time points after the injection: 10 min, 30 min, 1, 4, 6, hours, and 1, 2, 3, 7, 10, 14 days. Blood samples were taken from each animal via cardiac puncture. The blood samples were allowed to clot at room temperature for 30 minutes, but no longer than 1 hour. The blood samples were then centrifuged at approximately 3,500 rpm for 15 minutes. Serum samples were analyzed using a homogenous sandwich ELISA on the Mesoscale Discovery platform. Streptavidin-Gold plates (Mesoscale Discovery) were blocked for 1 hour with Superblock (TBS) Tween-20 (Thermo). Polyclonal anti-Tencon25 antibody was used for both capture (biotinylated) and detection (labeled with MSD Sulfo-Tag (Mesoscale Discovery)) at 0.625 μg/ml. The antigen and antibodies were added to the plates, which were incubated for 2 hours with vigorous shaking at RT. Plates were washed with TBS-T (Sigma) and MSD Read Buffer with Surfactant (Mesoscale Discovery) was added. The plates were read using the MSD Sector Imager 6000. Data was analyzed using GraphPad Prism. Previous studies have shown that a similar, unfused Tencon molecule is cleared from the bloodstream quickly with a serum half-life of approximately 20 minutes in mice.
# These molecules were dosed into mice at 2 mg/kg as described above in previous studies and analyzed using identical methods as described for the Tencon25-ABDCon fusions.
molecule,measurement,setting,value
"ABDCon11: ABDCon mutant A37Y, SEQ ID NO: 34 (LKEAKEKAIEELKKAGITSDYYFDLINKAKTVEGVNYLKDEILKA; Non-natural albumin binding domain ABDCon11)",solubility of the expressed mutant,[1],insoluble
"ABDCon12: ABDCon with TIDEWL added to the N-terminus, SEQ ID NO: 44 (TIDEWLLKEAKEKAIEELKKAGITSDYYFDLINKAKTVEGVNALKDEILKA; ABDCon12)",melting temperature (thermal stability),[2],90.9 °C
same,increase of melting temperature compared to the original ABDcon molecule,[2]; DSC in PBS,9.4 °
same,stability (degradation) after incubation,[3],degradation is occurring exclusively in the polyhistidine tag and not in the ABDCon12 sequence
"ABDCon: non-natural albumin binding domain consensus, SEQ ID NO: 21: […] (LKEAKEKAIEELKKAGITSDYYFDLINKAKTVEGVNALKDEILKA; not fully specified)",Kd,human serum albumin,75 pM
B1,AUC,[4]; 2 mg/kg intravenously,2054.332 µg·h/mL
same,Clearance,[4]; 2 mg/kg intravenously,22.93 mL/day/kg
same,T (½),[4]; 2 mg/kg intravenously,60.42 h
same,Volume of Distribution,[4]; 2 mg/kg intravenously,0.0832873 L/kg
same,serum half-life,[4]; single intravenous dose 2 mg/kg,over 60 hours
same,stability (degradation) after incubation,[3],degraded
B2,stability (degradation) after incubation,[3],degraded
